Data from paper doi:10.1101/2020.11.20.391094.

What was measured:
[1] = target: His-SctV, full length, synthesized in C41; also reconstituted in peptidiscs (His-SctV9-PR) (enteropathogenic E. coli (EPEC)); test: native gel or EMSA
[2] = target: His-SctV, full length, synthesized in C41; also reconstituted in peptidiscs (His-SctV9-PR) (enteropathogenic E. coli (EPEC)); test: SEC-MALS
[3] = target: His-SctV-C, isolated C-terminal cytoplasmic domain of EPEC SctV (enteropathogenic E. coli (EPEC)); test: native gel or EMSA
[4] = target: His-SctV-C, isolated C-terminal cytoplasmic domain of EPEC SctV (enteropathogenic E. coli (EPEC)); test: SEC-MALS
[5] = target: His-SctV-C, isolated C-terminal cytoplasmic domain of EPEC SctV (enteropathogenic E. coli (EPEC)); test: native MS
[6] = target: SctV, full length, untagged, plasmid-borne in E. coli C41 (enteropathogenic E. coli (EPEC)); test: native gel or EMSA

His-SctV, full length, synthesized in C41; also reconstituted in peptidiscs (His-SctV9-PR) (natural protein)
stoichiometry N [1]: 9
stoichiometry N [2]: 9

His-SctV-C, isolated C-terminal cytoplasmic domain of EPEC SctV (domain or fragment)
stoichiometry N [3]: 9
stoichiometry N [4]: 9
stoichiometry N [5]: 9

SctV, full length, untagged, plasmid-borne in E. coli C41 (natural protein)
stoichiometry N [6]: 9
